# Assay results reported in the supplement of paper PMC10724198.
# ± gives the standard deviation of the averaged measurements.
# System: Saccharomyces cerevisiae
# Assay: protein stability index of tFT-peptide fusion (C-terminal peptide) (PSI (0-1 scale)); higher = more stable (slower turnover)
# Settings: genetic background: wild type; temperature: 30 C
# 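Note: PSI is a weighted mean of sequencing reads over stability bins, variants kept only with over 10 reads, mCherry proximal and sfGFP distal, peptide attached via GGGS linker.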
row,Sequence,protein stability index
1,LPGKVGNAPFDQ,0.6913 ± 0.0062
2,VGGGVGGRDGAS,0.659 ± 0.051
3,SEVRGRERLAKC,0.662 ± 0.041
4,GRVSGDRFIVIV,0.572 ± 0.0008
5,TIVRTTLLEIWR,0.619 ± 0.04
6,LGRGRWSVLVVR,0.5287 ± 0.0014
7,FECDYLLCGAGL,0.744 ± 0.029
8,SPPFLLPFFPTP,0.68 ± 0.043
9,GRGIVVQNVLRQ,0.696 ± 0.011
10,SMCASRMPVCFS,0.767 ± 0.18
11,TEVRHMKGVAWW,0.6919 ± 0.0044
12,SVLRWAVLGQTR,0.728 ± 0.18
13,FASTEDDKKNTT,0.6746 ± 0.0029
14,HSGDLYFWGCRD,0.706 ± 0.061
15,KGGGMWRCCVWR,0.685 ± 0.0089
16,VSGGRQVGGGGW,0.72 ± 0.088
17,QKNWWLETVLRG,0.72 ± 0.023
18,MKKKTTKTKIKK,0.7205 ± 0.0051
19,GGPNKRTGVWGR,0.657 ± 0.0069
20,SPFLINTIFDIT,0.606 ± 0.038
21,RLSPGSPSPFPC,0.691 ± 0.029
22,HMCPWVWPVRDQ,0.691 ± 0.024
23,LYPRLAPPTPPS,0.686 ± 0.026
24,IEFPQGRKTTQS,0.629 ± 0.0082
25,PPSPPDLPPHPP,0.618 ± 0.027
26,KSEIRDGRFPSC,0.589 ± 0.011

row,Sequence,protein stability index
1,AALTPSCPLHLP,0.713 ± 0.024
2,PIHCTVMGATTC,0.657 ± 0.073
3,GNFIGSWLHTVD,0.811 ± 0.11
4,FHPRPPLLPSLP,0.6435 ± 0.003
5,STDRPLRLHPGG,0.622 ± 0.041
6,FALLVSDISGRI,0.811 ± 0.03
7,FGTKSLPSLLAM,0.583 ± 0.034
8,FTVRSPSCISAE,0.631 ± 0.017
9,EIKGKLQEGRMD,0.75 ± 0.021
10,HTWARGLGVIRP,0.768 ± 0.012
11,RLRVIMVSVGGV,0.544 ± 0.0079
12,RSFAGTTRIRLG,0.739 ± 0.043
13,PLYSLVSPPYAT,0.651 ± 0.019
14,KIRNLELNVQTN,0.688 ± 0.075
15,ERRGSLSWPIPP,0.722 ± 0.036
16,PPPKRTPTPQCP,0.702 ± 0.078
17,APGPAAPGHGYL,0.744 ± 0.039
18,PPVWSSLPPPPF,0.721 ± 0.018
19,SPPPPPTSPPPY,0.638 ± 0.0091
20,SALTPCPPPYSH,0.668 ± 0.032
21,WGLIASGSIVIV,0.548 ± 0.05
22,DCMSSVFQSPPG,0.693 ± 0.01
23,WKCHRTDSRKRW,0.726 ± 0.044
24,APLPPLYPPSPP,0.648 ± 0.065
25,PPPPLCPPPLSF,0.638 ± 0.016
26,GNLVSFCTKKGA,0.722 ± 0.014

row,Sequence,protein stability index
1,GGCTVLRASIFA,0.597 ± 0.0063
2,SRQPPPRVFCVV,0.571 ± 0.035
3,DVLSPRPSPLPS,0.665 ± 0.0093
4,PLWEYGCLFASS,0.718 ± 0.03
5,VSWVMSEMRKGE,0.697 ± 0.031
6,NKKKNLRYKHRI,0.643 ± 0.1
7,FSFIPIRRYPVM,0.733 ± 0.15
8,GGRKKEDEEEEA,0.651 ± 0.078
9,DASGGKKVSRGT,0.571
10,EIYARVQERLKI,0.617 ± 0.016
11,GAATKRKYTINT,0.665 ± 0.013
12,SPLPPPPPSSSS,0.661 ± 0.016
13,GGFVVVGGVVGV,0.72 ± 0.013
14,GGSCTRNLLRYW,0.727 ± 0.011
15,VTGCAVLSGAGE,0.675 ± 0.051
16,FVQEQGAKNNRH,0.746 ± 0.015
17,KIIASVLYGVIG,0.61 ± 0.037
18,PSFLPLPLPSSF,0.718 ± 0.028
19,FIFHFLMFPGPL,0.56 ± 0.013
20,PHLAPPPGPLHP,0.7233 ± 0.0024
21,DRRLPVSPPTIV,0.774 ± 0.12
22,YLGRDYYVVLWG,0.7506 ± 0.0045
23,AGLLLGGRVFGW,0.708 ± 0.067
24,PPVPRSPPPRRS,0.719 ± 0.12
25,TGIGPWVSPSIC,0.667 ± 0.018
26,SPPLPPVLSRSH,0.741 ± 0.043

row,Sequence,protein stability index
1,AVLGRRSQHASA,0.6832 ± 0.0036
2,LCSLWWGLVSGW,0.652 ± 0.029
3,TSPVCPARPRQL,0.646 ± 0.042
4,NINYETNKQTDR,0.668 ± 0.022
5,VGRRTRGHDGVT,0.659 ± 0.078
6,QKKSGKNGIRPK,0.701 ± 0.065
7,NSLGRRRSYPTL,0.839 ± 0.039
8,IGGWWCGALLGD,0.79 ± 0.074
9,HFGSSLPPFCCI,0.76 ± 0.021
10,YLSGHLGCRVRV,0.651 ± 0.067
11,ELFGGQRLARNY,0.637 ± 0.057
12,GVLCGVGLGFGV,0.702 ± 0.044
13,SVFERDWTGGEV,0.7184 ± 0.00085
14,GLASFVMQVAPF,0.705 ± 0.008
15,ARAGQGEWGGGV,0.701 ± 0.033
16,GGVVGVMWGGVR,0.624 ± 0.029
17,FAPCSPKAVFCS,0.589 ± 0.037
18,SLVWVVSDLGCG,0.778 ± 0.11
19,ATPVPTPRPAAP,0.729 ± 0.048
20,DSVRGNDSGSGL,0.7245 ± 0.0064
21,SFTGSASYPKGR,0.667 ± 0.0098
22,LFDRRDTSTLLL,0.707 ± 0.032
23,SFGACSTSERIN,0.666 ± 0.07
24,RSGLHGSGRPGG,0.715 ± 0.053
25,RNTPFVCVRNGA,0.726 ± 0.16
26,TMHFVWVLGILE,0.524 ± 0.014

row,Sequence,protein stability index
1,SCIIWPAKGCPF,0.687 ± 0.054
2,FVLATGVLLQQG,0.623 ± 0.024
3,FGSVGSIRTPDG,0.707 ± 0.0086
4,LVVALGFDDRAC,0.623 ± 0.027
5,ASSSLLRCFSRF,0.648 ± 0.062
6,RRGHMTRFTHSR,0.692 ± 0.077
7,SFFGPLADEIID,0.73 ± 0.014
8,SFSPEQITCNPY,0.598 ± 0.037
9,ALAQSGNVVLDR,0.751 ± 0.1
10,RPFLSVLPLFFP,0.734 ± 0.0017
11,PPPLPPPTPLSP,0.5736 ± 0.0043
12,GSACGSSYKWQM,0.614 ± 0.068
13,VIFFLPWYTPHP,0.6919 ± 0.0023
14,TTITTRSCALSS,0.707 ± 0.015
15,YISLQKGVMNEL,0.728 ± 0.008
16,RLEMPSVRSCAV,0.638 ± 0.17
17,SSRCLPPFPLCP,0.736 ± 0.11
18,ASGIYSRFSTSS,0.624 ± 0.052
19,SAFDVLCHVVVG,0.634 ± 0.021
20,GVPAPVFCRSIF,0.618 ± 0.015
21,LMVGFRSFNVKC,0.618 ± 0.051
22,SNAGRRRTNRIP,0.682 ± 0.03
23,DLTQHRQHKPQK,0.735 ± 0.043
24,LFFGVEWWRFEG,0.5604 ± 0.0023
25,PWTAHVWSMVLG,0.552 ± 0.033
26,TVPGKDEGEESV,0.696 ± 0.037

row,Sequence,protein stability index
1,PNHGEYRNGLYV,0.715 ± 0.11
2,VAVGLGRAVFGV,0.611 ± 0.034
3,FGASSGSARVCG,0.682 ± 0.083
4,GGGWDAVGVGGP,0.7505 ± 0.0022
5,AVVVCGGGGWWA,0.687 ± 0.068
6,HFVDAIPEGIHA,0.583 ± 0.023
7,ITNEQEMKRYDV,0.667 ± 0.013
8,HSPHSQYLLRID,0.72 ± 0.033
9,NSSKHAWAWPVP,0.68 ± 0.029
10,SGVGCGRSRWVW,0.626 ± 0.029
11,FFPSPPPVLSPP,0.747 ± 0.021
12,PFFRAPTRPSVF,0.716 ± 0.043
13,HSSDTAFSPLPP,0.6449 ± 0.0024
14,VRKKGKKKKKDK,0.678 ± 0.031
15,GLSEPWVFFLRC,0.64 ± 0.012
16,DTPERKGNLEEH,0.709 ± 0.053
17,LRGSCFSLWLVF,0.526 ± 0.031
18,TLSPFRLFGPIS,0.722 ± 0.092
19,VGVEIKITKEKK,0.739 ± 0.038
20,GAASHLERGQVP,0.634 ± 0.089
21,IKKRDKAKKEYI,0.672 ± 0.0077
22,LWGAIGHGNAGP,0.684 ± 0.029
23,RWFGRFSFCLFF,0.5 ± 0.055
24,LFIYSMKRFILE,0.631 ± 0.052
25,WESGRNNWYMNK,0.798 ± 0.13
26,APLPPPRPPPSP,0.657 ± 0.081

row,Sequence,protein stability index
1,KRKREKKLKKYK,0.634 ± 0.037
2,VVLRSTFFGSLL,0.699 ± 0.0089
3,SPPPHSARPPRP,0.686 ± 0.012
4,PLLLPPLPRTPF,0.622 ± 0.0066
5,WRRCSGGGVGSP,0.655 ± 0.084
6,AVVWMGAGVGGV,0.718 ± 0.03
7,LETEVDIYWLYR,0.605 ± 0.048
8,PPPHPSPSRRSS,0.681 ± 0.029
9,EPWTEQPKLDSR,0.936 ± 0.091
10,QRKLTFIKRYRV,0.67 ± 0.041
11,FYMCYFSCSRSL,0.667 ± 0.0086
12,RPPPLPLPPHFP,0.709 ± 0.069
13,VSVLCADGVLRM,0.725 ± 0.028
14,FELTSATWRGCF,0.685 ± 0.094
15,AGAWLVDAAVGV,0.612 ± 0.017
16,PCVCLRWTGKAF,0.532 ± 0.031
17,ARGKYKKLKIKE,0.733 ± 0.018
18,SNGFYVSRPIVY,0.769 ± 0.017
19,GGWARGRQGCGG,0.782 ± 0.011
20,IKGKNTGKERER,0.6176 ± 0.00089
21,LKSGAWFFRIGY,0.66 ± 0.018
22,QCGYGKLSGGSQ,0.672 ± 0.034
23,ACVSGSGLCLFV,0.694 ± 0.04
24,APRHSSLHPAPS,0.6986 ± 0.0029
25,HGNWGSSPVVSG,0.632 ± 0.055
26,IHLSVYPLQPSC,0.76 ± 0.04

row,Sequence,protein stability index
1,LHGFYSKKAINR,0.701 ± 0.031
2,RLLGSGHCLLYI,0.613 ± 0.047
3,APPPSPLPLPSL,0.689 ± 0.08
4,VDINYVIGRIRS,0.642 ± 0.0087
5,GSVRSLARFCVF,0.499 ± 0.072
6,KFLISIWGGTRG,0.6118 ± 0.0025
7,RAIPTWPIGDRR,0.655 ± 0.029
8,WRRGMMGGLAIW,0.698 ± 0.012
9,PPPLPPPPAPPY,0.734 ± 0.018
10,QQISQIFHKQGK,0.851 ± 0.13
11,ERSKTMVAGGEE,0.686 ± 0.062
12,SPPRSCLPRPPD,0.676 ± 0.05
13,LSVGLVPFRWRV,0.6584 ± 0.0017
14,MLGGGGGVRVLG,0.706 ± 0.011
15,TPPLALPAPCST,0.679 ± 0.035
16,QKKKVKETRNER,0.672 ± 0.034
17,SDQEIKKSQCGG,0.659 ± 0.047
18,PASSAPLSLLPC,0.655 ± 0.084
19,DHGRLFSNILIS,0.645 ± 0.028
20,LLPLTWTTVQGP,0.694 ± 0.027
